Values of other authors, collected in paper PMC8979592.

Target: clathrin (UniProt Q00610)

Kd: 120 µM
Substance: clathrin (from UniProt Q00610)
